# Test results reported in patent publication US20140179594A1, “STREPTOCOCCUS BACTERIOPHAGE LYSINS FOR TREATMENT OF GRAM POSITIVE BACTERIA IN COMPANION ANIMALS AND LIVESTOCK” (priority 2011, published 2014).
# Legend:
# [1] = tested on: S. uberis 27598; assay: ΔPlySs1 OD600 lysis, 1 hr; assay type: cell-based
# [2] = tested on: B. subtilis SL4; assay: ΔPlySs1 OD600 lysis, 1 hr; assay type: cell-based
molecule,measurement,setting,value
"ΔPlySs1: truncated PlySs1 lysin with N-terminal enzymatic and central binding domains, N-terminal 254 amino acids, SEQ ID NO:2 (protein, listed as Streptococcus suis) MTINLETSIRWMSDRVGKVSYSMDYRNGPNSYDCSSAVYYALMAGGAISAGWAVNTEYMHDWLIRNGYVLVAENKPFNAQRHDVCILGKRGYSSGAGGHVVIFVDNVNVIHCNYARNGISIDNYNQVHRGMYYYLYRPANQPSISNKSLDQLVKETLAGVHGNGDTRKASLGSQYEAVMAVINGKASASEKSDEELAREVLAGKHGAGEDRKRSLGPRYEPVQAKVNELLKAKEKPSETAKNEPQTVQFKEDGDL",1-hour treated/untreated OD600-ratio,[1]; 6.5 μg/ml,0.42
same,1-hour treated/untreated OD600-ratio,[1]; 13 μg/ml,0.23
same,1-hour treated/untreated OD600-ratio,[1]; 30 μg/ml,0.16
same,1-hour treated/untreated OD600-ratio,[1]; 65 μg/ml,0.14
same,1-hour treated/untreated OD600-ratio,[1]; 130 μg/ml,0.12
same,1-hour treated/untreated OD600-ratio,[2]; 6.5 μg/ml,1.07
same,1-hour treated/untreated OD600-ratio,[2]; 13 μg/ml,1.05
same,1-hour treated/untreated OD600-ratio,[2]; 30 μg/ml,1.04
same,1-hour treated/untreated OD600-ratio,[2]; 65 μg/ml,1.03
same,1-hour treated/untreated OD600-ratio,[2]; 130 μg/ml,0.96
